Results: patent US20220409535A1, “BIOLOGICAL AGENT-EXOSOME COMPOSITIONS AND USES THEREOF” (The University of North Carolina at Chapel Hill, priority 2016, published 2022)
Converted amounts (≈) assume the structure as drawn.

What was measured:
[1] = tested on: hCMEC/D3 cells; test: Flow cytometry of cell uptake of Mϕ exosomes and endocytosis markers; type: cell-based, human; settings: CM-DiI labeled exosomes, 4 h
Protocol: Flow Cytometry of Cell Uptake. hCMEC/D3 cells were grown in 24-well plates at […] for 4-5 days to reach confluence. Exosomes were labeled by adding CM-DiI dyes (2 μg/ml, Life Technologies) to the medium before the first […] pelleting step. In the uptake mechanism studies, the cells were pretreated with endocytosis inhibitors, carbohydrates or EGTA for 0.5 h, and then co-treated with CM-DiI labeled exosomes (0.6×10^10 exosomes/ml) for 4 h. The inhibition of endocytosis markers uptake was studied similarly. The endocytosis markers used were Alexa Fluor 488-Transferrin (10 μg/ml, Life technologies) for clathrin mediated endocytosis, Alexa Fluor 488-CTB (5 μg/ml, Life technologies) for caveolae mediated endocytosis, and FITC-Dextran (70 kDa, Sigma) (10 mg/ml) for macropinocytosis. The antibody block assays were done by co-incubating exosomes with antibodies or isotope controls at 100 μg/ml for 4 h. The cells were washed trice by PBS, detached by 0.25% trypsin/EDTA, collected by centrifugation at 100 g for 10 min, fixed with 4% paraformaldehyde for 10 min, and then resuspended in 0.35 ml PBS. Viable singlets were gated based on forward scatter and side scatter. 5,000-10,000 viable singlets were recorded for each sample on Becton Dickinson LSRII (BD Biosciences) using 488 nm and 532 nm lasers. Unless otherwise noted in figure legend, data are not normalized and reported as mean fluorescence±SD of 3 replicate wells.

[2] = tested on: ICAM-1; test: ICAM-1 expression in hCMEC/D3 cells by western blot; type: cell-based, human
Protocol: Protein expression was determined by western blot using β-actin as loading control.

[3] = tested on: 3LL-M27; test: In vitro cytotoxicity (MTT), 3LL-M27; type: cell-based, murine; settings: Mus musculus; 3LL-M27, 48 hours
Protocol: (§1) Briefly, cancer cells (MDCKMDR1, MDCKwt, and 3LL-M27) were seeded at 5,000 cells/well in 100 μL of media in 96-well plates overnight. […] Following the incubation, the cells were washed and incubated with MTT reagent as described in Batrakova et al., Mol. Pharm. 3:113 (2006) Epub 2006/04/04. The cytotoxic activity of PTX was then evaluated using a standard MTT assay (Ferrari et al., J. Immunol. Meth. 131:165 (1990)). The absorbance at 570 nm was measured using a Shimadzu RF5000 fluorescent spectrophotometer. The survival values were determined in relation to control cells cultured in drug-free media. All experiments were repeated at least three times. SEM values were less than 10%.

[4] = tested on: MDCK wt; test: In vitro cytotoxicity (MTT), MDCK wt; type: cell-based, canine; settings: Canis lupus familiaris, 48 hours
Protocol: as §1

[5] = tested on: MDCK MDR1; test: In vitro cytotoxicity (MTT), MDCK MDR1; type: cell-based, canine; settings: Canis lupus familiaris; MDCK MDR1, 48 hours
Protocol: as §1

[6] = tested on: sigma receptor; test: Receptor competitive inhibition by free anisamide; type: cell-based, murine; settings: 3LL-M27 cells, one hour
Protocol: Receptor Competitive Inhibition. To determine whether AA-vectorized exosomes to sigma receptor were accumulated in cancer cells via receptor-mediated endocytosis, a receptor competitive inhibition study was carried out. For this purpose, first a lipophilic fluorescent dye, DiL, was incorporated into exosome membranes. Briefly, the supernatant of RAW 264.7 macrophage conditioned media free of cells and cellular debris was filtered with a 0.22 μm PES filter and incubated with DiL dye (4 μM) at 37° C. for 20 min. Following a 20-minute incubation, ExoQuick-TC™ exosome precipitation solution was added to the filtered supernatant, the mixture was vortexed, and incubated overnight at 4° C. Then, the mixture was vortexed again and subsequently centrifuged at 1500×g for 30 minute to pellet exosomes. The supernatant was discarded and the exosome pellet was re-suspended in PBS. Freshly-prepared fluorescently labeled exosomes or exosomes stored at −20° C. were used for all experiments.
Next, 3LL-M27 cells were seeded overnight at 50,000 cells/well in a 96-well plate. […] The fluorescence levels in cell suspensions were measured by a Shimadzu RF5000 fluorescent spectrophotometer, and adjusted for protein content analyzed by BCA Assay using the Pierce BCA Protein Assay Kit (Thermo Fisher Scientific, Waltham, Mass., USA). […]

[7] = Brain delivery of BDNF and Mϕ exosomes complex; type: in vivo, mouse; settings: brain-inflamed mice, 10 min
Protocol: Animal Procedure. Mice were anesthetized with 40% urethane (4 g/kg) by intraperitoneal injection. Iodine labeled substances (4×10^5 cpm) were injected to the right jugular vein. At each time point, blood was collected from the left carotid artery, allowed to clot and then centrifuged at 5400 g for 10 min to collect serum. The whole brain and peripheral organs were removed and weighed immediately after blood sampling. The radioactivity of serum and tissues were counted and normalized to injected dose (ID) by volume (ml) or weight (g) (% ID/ml or % ID/g). An injection check representing ID was also counted (n=3).
PK data analysis. The noncompartmental PK parameters Vss (ml), Cl (ml/min), MRTlast and MRTinf (h) were estimated using Phoenix® WinNonlin® 6.3 (Pharsight). The Ki (slope) and Vi (y-intercept) were calculated from the linear portion of multiple-time regression analysis (Price et al., J. Pharmacol. Exper. Ther. 333:253 (2010); Patlak et al., J. Cerebral Blood Flow Metab. 3:1 (1983); Patlak et al., J. Cerebral Blood Flow Metab. 5:584 (1985)). Brain/serum ratio (Am/Cpt, ml/g) of co-injected BSA was used to correct for the vascular space or leakage (Banks et al, Brain Behav. Immun. 2010, 24:102 (2010)), and subtracted from that of tested substance to get the delta brain/serum ratio. […]
We further determined if Mϕ exosomes would ferry BDNF to the brain. […]

[8] = Patterson et al.; cited from earlier work
[9] = Size of catalase exosomal formulations by DLS and NTA; type: physicochemical; settings: DLS
Protocol: Characterization of different exoCAT formulations by (Dynamic Light Scattering) DLS, (Atomic Force Microscopy) AFM, Nanoparticle Tracking Analysis (NTA), and Hyperspectral microscopy: The effective hydrodynamic diameter of empty exosomes, or exosomes loaded with catalase was measured by DLS using the ZetaPlus' Zeta Potential Analyzer (Brookhaven Instruments, […]., USA) equipped with a 35 mW solid state laser (658 nm laser) as described in (Bronich et al., J. Amer. Chem. Soc. 122:8339 (2000); Vinogradov et al., Colloids Surfaces B-Biointerfaces 16:291 (1999)). The size, distribution, and number of particles for various exosomal formulations were also examined by NTA. For this purpose, exoCAT formulations were prepared at concentration 0.01 mg/mL, and evaluated using NanoSight 500, Version 2.2 (Wiltshire, United Kingdom). The morphology of exoCAT aggregates was investigated by AFM. Different exoCAT formulations were prepared in 50 mM phosphate buffer, pH 7.4 at total protein 10 μg/mL. A drop of the sample was placed on a glass slide, and dried under an argon flow. The AFM imaging was operated as described earlier (Zhao et al., Nanomedicine (Lond) 6:25 (2011)).

[10] = Preservation of catalase enzymatic activity and stability of exoCAT; type: physicochemical; settings: sonication conditions
Protocol: Enzymatic activity of catalase loaded into exosomes: The loading efficiency for different exoCAT formulations was assessed by catalase enzymatic activity using hydrogen peroxide decomposition assay (Zhao et al., Nanomedicine (Lond) 6:25 (2011)). For this purpose, different exoCAT formulations were incubated with pronase (0.1-0.2 mg/mL) for 3 hours at 37° C. Following the incubation, the aliquots were subjected for catalytic activity assessment as described above. The same assay was used to examine the preservation of catalase enzymatic activity in exosomes against proteases degradation. Stability of catalase was expressed in the residual activity vs. initial activity of catalase.

[11] = tested on: PC12 cells; test: Cell viability (MTT) of PC12 cells exposed to 6-OHDA; type: cell-based, rat
Protocol: Cell viability assay: The protection of PC12 cell by exoCAT prepared by sonication was assessed by MTT assay. For this purpose, PC12 cells (1×10^5 cells/mL) were seeded into a 96-well plate and allowed to attach overnight. Then, the cells were exposed to 200 μM 6-OHDA and different exoCAT formulations, or catalase alone, or empty exosomes for four hours. Following the incubation, the cells were washed 3 times with ice-cold PBS, and incubated with the corresponding exoCAT formulations, or catalase alone, or empty exosomes for another 24 hours. Following the treatment, 20 μL MTT (5 mg/mL) was added into each well. After 3 hours of incubation at 37° C., the medium containing MTT was removed; and 100 μL DMSO was added into each well to dissolve the purple MTT formazan. Absorbances were read at λ=570 nm by a microplate reader, and cell viability was expressed as a percentage of viable cells in the treated groups compared to the untreated control group.

[12] = calculated from the molecular mass of the enzyme; cited from earlier work
[13] = tested on: 6-OHDA-intoxicated mice; test: Immunohistochemical and stereological analyses in 6-OHDA PD mouse model; settings: i.n.
Protocol: For the detection of microglia activation, tissue sections were incubated with primary monoclonal rat anti-mouse anti-CD11b antibodies (1:500 dilution), and secondary biotinylated goat anti-rat antibodies (Vector Laboratories, Burlingame, Calif., 1:200 dilution). […] In addition, levels of astrocytosis were assessed in the ventral midbrain region by fluorescent analysis of glial fibrillary acidic protein (GFAP) expression. For the GFAP staining, tissue sections were permeabilized with 0.01% Triton X-100 in TBS for 30 minutes and blocked for 1 hour with 10% normal goat serum (NGS, Vector Laboratories Inc., Burlingame, Calif.), then incubated with rabbit anti-GFAP primary polyclonal antibodies ab7260 (AbCam, Cambridge, Mass.) 1:100 dilution for 16 hours at 4° C. […] Immunoreactivity was evaluated by fluorescent analysis using confocal microscope Zeiss 510 Meta Confocal Laser Scanning Microscope (Jena, Germany), and ImageJ software (NIH, Bethesda, Mass., USA).

## N[C@H]1C(O)O[C@H](CO)[C@@H](O)[C@@H]1O (stereo partly drawn) [glucosamine]
[1]
  effect on uptake of Mϕ exosomes: inhibited the uptake at lower concentrations
[2]
  ICAM-1 expression: did not inhibit the expression of ICAM-1

## CC(=O)O[C@H]1C(=O)[C@@]2(C)[C@H]([C@H](OC(=O)c3ccccc3)[C@]3(O)C[C@H](OC(=O)[C@H](O)[C@@H](NC(=O)c4ccccc4)c4ccccc4)C(C)=C1C3(C)C)[C@]1(OC(C)=O)CO[C@@H]1C[C@@H]2O [PTX, paclitaxel]
[3]
  IC50: 0.126 ± 0.0313 µg/mL (≈ 0.148 µM)
[4]
  IC50: 0.429 ± 0.0634 µg/mL (≈ 0.502 µM)
[5]
  IC50: > 10 µg/mL

## COc1ccc(C(N)=O)cc1 [free AA, anisamide]
[6]
  competitive inhibition of uptake by free AA: not able completely inhibit exosome uptake

B1: BDNF: brain derived neurotrophic factor (protein, UniProt P23560 19-247, looked up)
Neurotrophic factor BDNF …: APMKEANIRGQGGLAYPGVRTHGTLESVNGPKAGSRGLTSLADTFEHVIEELLDEDQKVRPNEENNKDADLYTSRVMLSSQVPLEPPLLFLLEEYKNYLDAANMSMRVRRHSDPARRGELSVCDSISEWVTAADKKTAVDMSGGTVTVLEKVPVSKGQLKQYFYETKCNPMGYTKEGCRGIDKRHWNSQCRTTQSYVRALTMDSKKRIGWRFIRIDTSCVCTLTIKRGR
[7]
  brain accumulation of BDNF: the difference was not significant
[8]
  isoelectric point: 9.99

B2: Catalase alone: Catalase from bovine liver (protein, UniProt P00432 2-527, looked up)
Catalase: ADNRDPASDQMKHWKEQRAAQKPDVLTTGGGNPVGDKLNSLTVGPRGPLLVQDVVFTDEMAHFDRERIPERVVHAKGAGAFGYFEVTHDITRYSKAKVFEHIGKRTPIAVRFSTVAGESGSADTVRDPRGFAVKFYTEDGNWDLVGNNTPIFFIRDALLFPSFIHSQKRNPQTHLKDPDMVWDFWSLRPESLHQVSFLFSDRGIPDGHRHMNGYGSHTFKLVNANGEAVYCKFHYKTDQGIKNLSVEDAARLAHEDPDYGLRDLFNAIATGNYPSWTLYIQVMTFSEAEIFPFNPFDLTKVWPHGDYPLIPVGKLVLNRNPVNYFAEVEQLAFDPSNMPPGIEPSPDKMLQGRLFAYPDTHRHRLGPNYLQIPVNCPYRARVANYQRDGPMCMMDNQGGAPNYYPNSFSAPEHQPSALEHRTHFSGDVQRFNSANDDNVTQVRTFYLKVLNEEQRKRLCENIAGHLKDAQLFIQKKAVKNFSDVHPEYGSRIQALLDKYNEEKPKNAVHTYVQHGSHLSAREKANL
[9]
  Deff (nm): 9.5 nm
  PdI: 0.10
[9]; listed as naked catalase
  Deff (nm): 9.5 nm
[10]
  catalase enzymatic activity upon sonication: 14%
[11]
  neuroprotective activity (neuronal survival, MTT): did not protect PC12 cells
[12]
  theoretical diameter of a single protein globule: 10.5 nm
[13]
  anti-inflammatory and neuroprotective effect: not effective in decreasing inflammation or providing neuroprotection
